Earlier results in publication PMC10215765.

Target: Band 3 cytoplasmic N-terminal domain (Homo sapiens) (UniProt P02730)
UniProt P02730, sequence (P02730 1-379): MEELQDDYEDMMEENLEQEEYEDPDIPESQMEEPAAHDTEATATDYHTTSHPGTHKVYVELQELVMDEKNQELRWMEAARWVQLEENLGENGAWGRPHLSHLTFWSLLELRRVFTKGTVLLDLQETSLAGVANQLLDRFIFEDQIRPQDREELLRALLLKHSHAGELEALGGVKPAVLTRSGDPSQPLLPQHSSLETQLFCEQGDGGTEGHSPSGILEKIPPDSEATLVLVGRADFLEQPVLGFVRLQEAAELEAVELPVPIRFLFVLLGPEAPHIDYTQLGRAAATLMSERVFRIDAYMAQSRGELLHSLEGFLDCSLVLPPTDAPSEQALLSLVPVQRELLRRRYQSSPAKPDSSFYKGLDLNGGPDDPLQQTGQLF

Kd: 34 nM
Substance: Peroxiredoxin 2 (from UniProt P32119)
